Target: the molecule itself
Assay: AUC

B1: SSB-ΔL, linkerless variant of E. coli SSB (SSBΔ115–168) (natural protein, UniProt P0AGE0 2-178, looked up)
chain: ASRGVNKVILVGNLGQDPEVRYMPNGGAVANITLATSESWRDKATGEMKEQTEWHRVVLFGKLAEVASEYLRKGSQVYIEGQLRTRKWTDQSGQDRYTTEVVVNVGGTMQMLGGMDFDDDIPF
  stoichiometry N: 4

— publication PMC5576569 (Journal of molecular biology, 2017)
